The values that follow come from PMC11736007.

The target in the experiment is Orai1β-eGFP (UniProt Q96D31). The experiment can be described thus: co-IP; Orai1-KO MCF7 cells co-transfected with an Orai1 variant and mCherry-SPCA2; lysis in 1% IGEPAL CA-630 buffer pH 8; immunoprecipitation with anti-Orai1 antibody and protein A-agarose at 4 °C overnight; Western blot with anti-mCherry; signal normalised to input and to immunoprecipitated Orai1. (In western blotting, separated proteins are transferred to a membrane and probed.)
Chain of UniProt Q96D31 (Q96D31 64-301): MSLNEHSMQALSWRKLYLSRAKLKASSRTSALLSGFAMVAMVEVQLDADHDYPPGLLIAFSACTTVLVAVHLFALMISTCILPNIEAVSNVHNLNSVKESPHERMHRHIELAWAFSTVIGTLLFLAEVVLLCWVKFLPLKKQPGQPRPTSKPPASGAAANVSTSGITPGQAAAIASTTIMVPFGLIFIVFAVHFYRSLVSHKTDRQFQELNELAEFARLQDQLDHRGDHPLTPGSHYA

B1: mCherry-SPCA2 (natural protein)
chain: MVEGRVSEFLKKLGFSGGGRQYQALEKDEEEALIDEQSELKAIEKEKKVTALPPKEACKCQKEDLARAFCVDLHTGLSEFSVTQRRLAHGWNEFVADNSEPVWKKYLDQFKNPLILLLLGSALVSVLTKEYEDAVSIATAVLVVVTVAFIQEYRSEKSLEELTKLVPPECNCLREGKLQHLLARELVPGDVVSLSIGDRIPADIRLTEVTDLLVDESSFTGEAEPCSKTDSPLTGGGDLTTLSNIVFMGTLVQYGRGQGVVIGTGESSQFGEVFKMMQAEETPKTPLQKSMDRLGKQLTLFSFGIIGLIMLIGWSQGKQLLSMFTIGVSLAVAAIPEGLPIVVMVTLVLGVLRMAKKRVIVKKLPIVETLGCCSVLCSDKTGTLTANEMTVTQLVTSDGLRAEVSGVGYDGQGTVCLLPSKEVIKEFSNVSVGKLVEAGCVANNAVIRKNAVMGQPTEGALMALAMKMDLSDIKNSYIRKKEIPFSSEQKWMAVKCSLKTEDQEDIYFMKGALEEVIRYCTMYNNGGIPLPLTPQQRSFCLQEEKRMGSLGLRVLALASGPELGRLTFLGLVGIIDPPRVGVKEAVQVLSESGVSVKMITGDALETALAIGRNIGLCNGKLQAMSGEEVDSVEKGELADRVGKVSVFFRTSPKHKLKIIKALQESGAIVAMTGDGVNDAVALKSADIGIAMGQTGTDVSKEAANMILVDDDFSAIMNAVEEGKGIFYNIKNFVRFQLSTSISALSLITLSTVFNLPSPLNAMQILWINIIMDGPPAQSLGVEPVDKDAFRQPPRSVRDTILSRALILKILMSAAIIISGTLFIFWKEMPEDRASTPRTTTMTFTCFVFFDLFNALTCRSQTKLIFEIGFLRNHMFLYSVLGSILGQLAVIYIPPLQRVFQTENLGALDLLFLTGLASSVFILSELLKLCEKYCCSPKRVQMHPEDV
The molecule B1 registered a percent decrease of co-precipitated SPCA2 against Orai1α of 63%.
